Measured values published in US20220054617A1, “SUBUNIT VACCINE CONSTRUCTS FOR FLAVIVIRUSES” (priority 2018, published 2022).
Entries after “also recorded” stand apart in the source; their conditions may differ.

Assays:
DENV-2 = assay: Seroconversion, DENV-2-specific IgG titers; assay type: in vivo, rabbits; conditions: three immunization regimes of Table 8
Experimental: (§1) Pre-immune test-bleeds are first obtained from adult New Zealand White rabbits via venipuncture of the marginal vein of the ear on Day 1. The rabbits are immunized intramuscularly in the flank region with (a) 10 μg of antigen in 0.2 mL saline (n=4 for non-adjuvanted, antigen+saline control cohort), or (b) 10 μg of antigen plus 100 μg of adjuvant in 0.2 mL saline (n=4 for antigen+adjuvant test cohorts). An aqueous formulation for all adjuvants and antigens is ensured. Animals are immunized on Days 1, 15, and 28. A final test-bleed is performed via the marginal vein of the ear on Day 38. Sera may be banked at −80° C. for further analysis.
(§2) Rabbits (n=4/cohort) were immunized with 10 μg each antigen per dose as described in the Standardized Rabbit Model of Immunogenicity modified as shown in Table 8.

DENV-1 = assay: ADE / protection against DENV-1 by rabbit antisera (CPE/cell death, 4G2 immunostain); assay type: cell-based, dengue virus; conditions: in vitro challenge
DENV-4 = assay: ADE / protection against DENV-4 by rabbit antisera (CPE/cell death, 4G2 immunostain); assay type: cell-based, dengue virus; conditions: in vitro challenge
DENV-1 antigen = biological target: T1, DENV-1 antigen (Dengue virus type 1, UniProt P17763, A649T/F617I/M577V/S619T/V660I); assay: Serological cross reactivity matrix (ELISA), DENV-1 antigen; assay type: binding; conditions: Immune-2 rabbit sera
T1 construct: made in house; host or cells: E. coli BL21(DE3)-pRARE
Source text: (§3) FIG. 10B-FIG. 10C show exemplary results of a serological cross reactivity matrix. Immune-2 sera from rabbits immunized with the 6 antigens were screened by ELISA for homologous titers. Samples with highest titers were examined for immunoreactivity with all antigens. […] DENV-1 Ag is recognized by anti-DENV-3 and anti-ZIKV antisera. Conversely, anti-DENV-3 antisera recognizes ZIKV antigen. Anti-ZIKV antisera recognizes WNV antigen very strongly.

ZIKV antigen = biological target: T2, ZIKV antigen (Zika virus, UniProt Q32ZE1); assay: Serological cross reactivity matrix (ELISA), ZIKV antigen; assay type: binding; conditions: Immune-2 rabbit sera
T2 construct: made in house; host or cells: E. coli BL21(DE3)-pRARE
Source text: as §3

DENV-3 = assay: Seroconversion, DENV-3-specific IgG titers; assay type: in vivo, rabbits; conditions: three immunization regimes of Table 8
Experimental: as §1, §2

T1 sequence (P17763 571-673, looked up, stated change not applied): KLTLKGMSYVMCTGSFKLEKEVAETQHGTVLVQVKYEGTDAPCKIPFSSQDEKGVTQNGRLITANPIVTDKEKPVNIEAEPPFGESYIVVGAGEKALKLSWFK
T2 sequence (Q32ZE1 582-689, looked up, natural form): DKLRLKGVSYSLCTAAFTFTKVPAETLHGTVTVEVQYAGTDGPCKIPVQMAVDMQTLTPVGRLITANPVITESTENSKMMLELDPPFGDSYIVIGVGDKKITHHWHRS

B1: SGp(L)-DENV-2: SGp(L) fusion of DENV-2 antigen, SEQ ID NO: 39 (protein)
chain: MHHHHHHSTSLAEAKVLANRELDKYGVSDYYKNLINNAKTVEGVKALIDEILAALPKGTQLKGMSYSMCTGKFKVVKEIAETQHGTIVVRVQYEGDGSPCKIPFEIMDLEKRHVLGRLITVNPIVTEKDSPVNIEAEPPFGDSYIIIGVEPGQLKLSWFKK
- seroconversion (DENV-2-specific IgG titers) (DENV-2): equivalence between all three immunization regimes

B2: DENV-3: DENV-3 E-glycoprotein subunit antigen, SEQ ID NO: 4 (protein)
chain: SNALKGMSYAMCTNTFVLKKEVSETQHGTILIKVEYKGEDAPCKIPFSTEDGQGKAHNGRLITANPVVTKKEEPVNIEAEPPFGESNIVIGIGDNALKINWYKK
modifications: Dengue virus 3
- protection / neutralization against DENV-1 (heterologous) (DENV-1): neutralizes; also recorded: prominent heterologous protection
- protection / neutralization against DENV-4 (heterologous) (DENV-4): neutralizes
- cross-reactivity of antisera with DENV-1 antigen (DENV-1 antigen): Significant cross-reactivity; also recorded: recognized
- cross-reactivity of antisera with ZIKV antigen (ZIKV antigen): reciprocal cross-reactivity was evident; also recorded: recognizes

B3: SGp(L)-DENV-3: SGp(L) fusion of DENV-3 antigen, SEQ ID NO: 40 (protein)
chain: MHHHHHHSTSLAEAKVLANRELDKYGVSDYYKNLINNAKTVEGVKALIDEILAALPKGTLKGMSYAMCTNTFVLKKEVSETQHGTILIKVEYKGEDAPCKIPFSTEDGQGKAHNGRLITANPVVTKKEEPVNIEAEPPFGESNIVIGIGDNALKINWYKK
- seroconversion (DENV-3-specific IgG titers) (DENV-3): equivalence between all three immunization regimes
